Experimental data reported in the supplement of paper PMC12042874.
± gives the uncertainty stated by the source.

Test: amyloid nucleation score (Sup35N fusion, yeast selection) (log enrichment); library NNK3; higher = more nucleation; inactive = no reads after selection
Method in brief: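 Sup35N was fused to peptides of 20 random codons and expressed in psi-negative yeast, which were induced with 100 μM copper sulfate for 24 hours and then grown on medium lacking adenine and uracil for 7 days at 30°C. Plasmid inserts from input and output were sequenced on Illumina. The nucleation score is the DiMSum log enrichment of output over input reads, centred on the mode score of non-aggregating sequences. Sequences with under 100 input reads were left out, and random libraries had three technical output replicates.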

Substance | amyloid nucleation score
YGGNSIY | inactive
CNFLGSRLGYFGNYIFI | inactive
ITARLVTS | inactive
DSFLSGSEELSVSDCCCIAF | inactive
TPMWMGT | inactive
GLYPQWLGDGRWLSSGLATL | 0.138 ± 0.33
YYYLKVHNLVSYVNAFVR | inactive
QILLSLQIWRWWVNRII | inactive
DNLWRVRLRCKAFSLYVLNR | inactive
MSIIKKIG | inactive
MFLFFHVFKDFQIHRDLQDW | 0.08 ± 0.59
DLDECKFPINELSFHSSMGM | 1.83 ± 0.091
ICSFFGNSPVRLQVYFLWSW | inactive
TNYRYSFGISYS | inactive
TFEWCMPFFTNFSLMFFFYW | inactive
CVIITFESRILDELICDTVR | inactive
CSAIFCVVRGFRRVK | inactive
MSFTMMCMSFCSSILRYNLS | inactive
CDLWIHWS | inactive
EKLCAHCSCPKVGVELFGCV | inactive
LVAFATWYNGWWVPRENEFR | 0.033 ± 0.47
QSFGMFAVYRAWVSIL | inactive
MIYSHDHTYHSCLLDAVSCR | inactive

Substance | amyloid nucleation score
TGMFL | -0.004 ± 0.2
SLCFGTP | inactive
SSLLKFDFPVLPCHDLRLAL | inactive
TYVRIGVCGVLWFCTFFTQC | inactive
GTIMMWLGVQRVLTASGKGG | inactive
TWVVYFVVRMCVQGSVYSMA | inactive
YCVMNSAINSLRSMAIWSFA | inactive
VDTILSNKVYVRAPPKRGSK | inactive
LNLHSSLGMFASLGDMIRVT | inactive
GCPIFAIFFDLTLCDNARYM | 2.47 ± 0.08
RMAYNFTKSR | inactive
SAGYGLPPPVEYFNWPFSC | -0.394 ± 1.9
FTIVTQCEPTRLSCISDNIR | inactive
WYGLA | inactive
RCSRWNWCVVAG | inactive
IGYTRLLFLMDVTVGIRVGW | inactive
VAYRTGSDG | inactive
FDGNFGWARRVNAGDSLFMF | inactive
TRVSWTFGINTSSGPSALHL | 0.995 ± 0.13
LPICVVMDKRFCTIVISSST | inactive
NKLCYSSDLYWRVTDKDEHR | inactive
RRDCCGE | 0.17 ± 0.75
SLDKSMSGKRSLVRADSTLS | -0.046 ± 0.88

Substance | amyloid nucleation score
FFVKYVLEKCAWKY | inactive
DRSLMRS | inactive
DIFVDN | inactive
IMLGRANSIYMH | inactive
MHHVLYERERSY | inactive
TPFSCEYNIMWESRGGDWSR | inactive
PCMNGVASFWNCGIKIFGSF | inactive
WWAISTLGMGNQLFLGVPRY | inactive
WFLSLLSQLGYGQVFVDFIP | inactive
IELLCGLDIT | inactive
RGICFGYLGFM | 0.145 ± 0.3
ACLIRPRFYPVNHNSVVASL | inactive
PYKNI | inactive
SRKIFEGTIRIRLTDSASFS | inactive
GLVNCEHVWRIETKLVTPHL | -0.764 ± 0.76
LLSHYFHGMCMTHISGIFVM | inactive
RTKFWMRRKRLLPSILYNEL | inactive
LKEQSVQMAWP | inactive
SACNAPSLNSTLIVT | inactive
LRKSLTEQPPKGLASRLYWS | inactive
TPDFVRSRKMNWVAIKKRAE | inactive
AHREFLFRMTVWNITKGLIL | -0.481 ± 0.9
ILGGGSIFKSRQNMIWYTLS | 0.207 ± 0.61

Substance | amyloid nucleation score
EGRRIAGNARDRDHDLQVGR | inactive
YMDLSILGAMVSVSFNMG | 2.56 ± 0.063
LMYTRGFLWGAWINACMSRG | 1.2 ± 0.15
FKYYRSYYPYICLKSVI | inactive
FKPTRSHQGSFSSVTMFLVG | 0.261 ± 0.29
FCKLQYTGQS | inactive
HLTLSAQRATSVVCERLQIS | inactive
RVEMICFQDYLEYKRE | inactive
SDNRSPSLRLFYRPRFHRLG | inactive
FYSCGNDAASMLFRLTSGGI | inactive
VWGLKFTRFVNTQLRRYPTL | inactive
ILSFEVWFGLWSTCGLYPHK | inactive
RGTVSQFVMAVNWFTSFVKR | inactive
SQYTRCSVYIVW | 1.43 ± 0.079
TMCCACVFLSSSGWEFNYGL | 2.35 ± 0.081
VQLGAD | inactive
QVCYFYIIVLVLD | inactive
DVMTKDQ | inactive
SAEVATFFNCKYHSSLSILT | inactive
RCRLSKANFRHWNKEVKWTF | inactive
CVFIFLKSCKYKVVKGINGV | inactive
TDMHGFNNIS | inactive
LSWFIYWDKIRGWSKMTIGQ | inactive

Substance | amyloid nucleation score
YKHFYSFFCISFS | 1.88 ± 0.08
LLYQFSELQMASWNNKKKEL | inactive
SGMDSKRKDSCLLCVHFHVS | inactive
TSLSRHTIPYNHVLYSTWW | inactive
MSRMMSLNMECTSGMPESQV | inactive
KTMVYGIQANDGWLVHGGFL | inactive
CVWAVGVFFGFMIQRQDEER | inactive
NFQNSVLFNMV | inactive
NYILSHWELV | inactive
FSGNGSSYYASSMNGDTVFL | inactive
FFFLNSWVFYVLMNNDIVCA | inactive
SGKDIALMVHCVTVMWDQAY | inactive
HGMPMVAFITFVVNIRGLCD | 0.079 ± 0.81
SCNSRFMI | -0.082 ± 0.66
SCFTEIEWS | inactive
SESPKMLVHVVSHILRDFSE | inactive
CVSFNLVSWVFNYCS | 2.55 ± 0.056
CMVSSVKLNFIYIGYGDSGW | inactive
VTVQK | inactive
RVRVNPSVHRRPRYGND | inactive
FYLGLAYVLSWVGFCVIGVS | inactive
EVCQCRPTTVSLARVGRIVV | inactive
NGSGGWLNINNISEGRWRTG | inactive

Substance | amyloid nucleation score
TEDGYNNEMSRQKVMVLINT | inactive
TGSTDRHYGRYIGWGANSRF | inactive
VCYDVCGRGWTCQY | -0.011 ± 0.42
FPQFLSIAGPKPHCKN | inactive
TRITMASSREV | inactive
FSAIRVLYSVKTELDSNNMY | 0.822 ± 0.24
AILSTLVNTVNRELRQGRLM | inactive
DWGTASSSTVGFEQSSDKVF | inactive
PSVPSNHLDCYLTWGT | inactive
GFWLGVMVTHTSTTYSAFTP | 0.059 ± 0.29
DHPYQRLIEWWLLCIYGSMY | inactive
DRHSRCQ | inactive
SSSVCRSLSPLILSHKRYYS | inactive
RSSSCLKTYLYLCGGWTSTF | 0.003 ± 0.26
GCGPLNFSVESHQCLKS | inactive
YFLNSQVSNLLGS | inactive
KSIIYTILLVWFKYGVHSPL | inactive
SESSS | inactive
FSVYVAG | inactive
AYLGLLNSAKFFKYLRSYAW | inactive
GDTHESFVGRTVYPDRLESH | inactive
CVPCRQHTYSWDFVRVHLTV | inactive
YSTNVSYY | inactive

Substance | amyloid nucleation score
YDNVDNYTTEISVNGCLMMN | inactive
FYWSFIRLFRS | inactive
FVFIVCMCSSTWAQMYGLNW | 1.25 ± 0.084
SLKELRVSLSSLCACDSNNN | inactive
VATHTSASHLRS | inactive
IQASWFNWKWLL | inactive
RLFYCVSAVRIHVCGNSKLF | inactive
CTPFTLECW | -0.193 ± 1.1
ISQLIEHRRAESCLRPKGRQ | inactive
NQARHRSSIRRCG | inactive
VNIIF | inactive
SLYLGWVPAIELLG | inactive
LFRIRQCFFYFSIFLVFSIK | inactive
KRITLWCLCFRSYDHEMMV | inactive
NESFGTARSAGDGMKNVPGP | inactive
ALSPHSNCIYNCLSCCCDTD | 0.655 ± 0.15
ANECDGVYNGAKCSRWNFLL | inactive
MIGHFTYVGLWGSLATYVQV | inactive
LHLTDLYYGF | inactive
GNFSRLDSCFTVVRARVKCN | inactive
HFSLGLVMYLCSLGNVRP | 1.47 ± 0.11
